Residues, ends and D or L forms follow the SMILES beside them.

Data set [1] concerns the target T1, alpha-amidating enzyme (Rattus norvegicus, UniProt P14925).
T1 sequence (P14925 36-976): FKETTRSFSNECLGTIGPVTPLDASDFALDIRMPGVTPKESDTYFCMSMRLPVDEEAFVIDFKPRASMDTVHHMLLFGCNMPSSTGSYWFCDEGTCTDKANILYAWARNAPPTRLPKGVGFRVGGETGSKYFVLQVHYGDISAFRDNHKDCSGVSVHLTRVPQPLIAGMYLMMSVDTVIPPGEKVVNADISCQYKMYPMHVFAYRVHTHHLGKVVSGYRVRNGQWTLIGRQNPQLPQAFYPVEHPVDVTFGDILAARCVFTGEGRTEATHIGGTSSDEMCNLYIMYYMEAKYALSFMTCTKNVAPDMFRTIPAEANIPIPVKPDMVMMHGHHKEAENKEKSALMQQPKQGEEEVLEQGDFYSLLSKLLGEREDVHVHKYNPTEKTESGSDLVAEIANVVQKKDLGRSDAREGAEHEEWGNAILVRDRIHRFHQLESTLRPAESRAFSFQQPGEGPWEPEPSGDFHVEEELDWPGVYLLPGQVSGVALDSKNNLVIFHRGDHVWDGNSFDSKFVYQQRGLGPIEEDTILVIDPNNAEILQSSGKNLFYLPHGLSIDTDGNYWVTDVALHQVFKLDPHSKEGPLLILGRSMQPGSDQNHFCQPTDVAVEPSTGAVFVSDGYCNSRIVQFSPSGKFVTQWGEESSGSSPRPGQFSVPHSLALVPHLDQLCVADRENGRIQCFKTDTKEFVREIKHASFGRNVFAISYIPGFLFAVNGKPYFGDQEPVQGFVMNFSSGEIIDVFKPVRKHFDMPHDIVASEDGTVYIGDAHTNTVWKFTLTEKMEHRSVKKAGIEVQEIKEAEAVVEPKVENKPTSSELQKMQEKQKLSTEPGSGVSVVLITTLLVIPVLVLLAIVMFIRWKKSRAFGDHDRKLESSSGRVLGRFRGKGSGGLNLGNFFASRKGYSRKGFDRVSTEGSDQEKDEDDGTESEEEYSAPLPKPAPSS
The experiment in a line: co-factor requirement of alpha-amidating enzyme for maximal activity. The data set is classed as biochemical. Conditions: in vitro, with peptide substrate, oxygen and L-ascorbic acid.

Data set [2] addresses T1, alpha-amidating enzyme. The experiment in a line: comparison of assay systems / kinetic analysis of amidation of dansyl-Tyr-Val-Gly, D-Tyr-Val-Gly and 125I-D-Tyr-Val-Gly. The data set is classed as biochemical. The procedure: (§1) I. Monodansyl L-Tyr-Val-Gly
(§2) The concentration of enzyme used in all experiments was left constant except where noted.
(§3) The reaction mixture for the conversion of the monodansyl substrate contained:
(§4) 5 μl of 100 ug/mL bovine pancreatic catalase
(§5) 5 μl containing 2 nmoles of substrate
(§6) The samples were prepared in duplicate and incubated at 37° C. for 10, 20 and 30 minutes time periods. The enzymatic reaction was halted by the addition of 10 ul 500 mM EDTA. Substrate and product were separated by RP HPLC using an Hewlett Packard-1090 liquid chromatography system, and quantitation was achieved using a HP-3392 integrator.
(§7) D-Tyr-Val-Gly and D-Tyr-Val-NH2 were iodinated using iodobeads from Pierce Chemical Company. The radiolabeied substrate and product were used to calibrate a sulfyl-propyl cation-exchange column. ^125 I D-Tyr-Val-Gly was added to 650 uM D-Tyr-Val-Gly and used as the substrate. The reaction mixture for the conversion of monodansyl substrate contained:
(§8) Samples were incubated for 10, 20, 30 minutes at 37° C. The reaction was stopped by addition of 500 mM EDTA. […] The conversion of radiolabeled substrate to product was linear with respect to time.
The reaction conditions used for the amidation of D-Tyr-Val-Gly are identical to those described for the dansyl and iodinated substrates. Substrate concentration in the reaction mixture was 650 uM. Separation of substrate and product is achieved by gradient elution on RP-HPLC using a HP-1090 liquid chromatography system. The column effluents were monitored at 280 nm. The level of sensitivity for this assay is much lower than that for either dansyl or iodinated substrates.
Furthermore, a somewhat more rigorous kinetic analysis has also been employed to compare the dansyl-Tyr-Val-Gly (Applicants') assay to the D-Tyr-Val-Gly (prior art) assay.

Substrate in data set [3]: CC(C)[C@H](NC(=O)[C@H](N)Cc1ccc(O)cc1)C(=O)NCC(=O)O
Described as above. Conditions: 37.0 °C. The data set is classed as biochemical, rat. The procedure: as §1, §2, §3, §4, §5, §6, §7, §8
The reaction conditions used for the amidation of D-Tyr-Val-Gly are identical to those described for the dansyl and iodinated substrates. Substrate concentration in the reaction mixture was 650 uM. […] The column effluents were monitored at 280 nm. […]

Data set [4] in a line: specific alpha-amidating activity, conversion of Dansyl-D-Tyr-Val-Gly to Dansyl-D-Tyr-Val-CONH2. The data set is classed as biochemical. Here is the method: These and other objects will become apparent from a thorough reading of the present disclosure. […] All specific activity units set forth herein are based upon the conversion of Dansyl-D-Try-Val-Gly-COOH to Dansyl-D-Tyr-Val-CONH2. One mU is defined as the amount of activity needed to convert one nanomole (nmole) of Dansyl-D-Tyr-Val-Gly-COOH to one nmole of Dansyl-D-Tyr-Val-CONH2 per minute at 37° C. and pH 7.0 in the presence of ascorbate ions at a concentration of 3 mM (based on total reaction mixture including enzyme, substrate, co-factors, etc.), molecular oxygen in a molar excess over substrate and a concentration of cupric ions effective to maximize activity (usually about 2 μM depending on the state of purity of the enzyme).
Each purification step can be monitored for both protein content and the level of alpha-amidation activity. This information is used to calculate the specific activity of the enzyme which serves as an indicator of the relative purity of the enzyme.
Sephacryl S-300 (Pharmacia) was equilibrated in 50 mM Tris HCl pH 7.0 and poured into a K 50/100 column (Pharmacia) according to the manufacturer's instructions. The bed volume of the column was approximately 1.3 liters. The Sample was loaded onto the column in a volume representing approximately 3 percent of the bed volume of the column. Proteins were eluted from the column in 50 mM Tris HCl pH 7.0 at a flow rate of approximately 2 ml per minute.
as §3
The samples were prepared in duplicate and incubated at 37° C. for 10, 20 and 30 minutes time periods. The enzymatic reaction was halted by the addition of 10 ul 500 mM EDTA.

Data set [5] can be described thus: pH optimum of alpha-amidating enzyme. The data set is classed as biochemical. Conditions: CA-77 cell tissue culture media enzyme. Here is the method: 2. The optimum pH for the activity of the enzyme was determined to be pH 5.0-5.5 using N dansyl Tyr-Val-Gly as the substrate (FIG. XVI). However, due to the enhanced stability of the enzyme at neutral pH, it may be beneficial to carry out the amidation reaction at such pH.

As to `O=S(=O)([O-])[O-].[Cu+2]` [copper sulfate], in data set [1], the “effect of addition on enzymatic activity” value is reported as “substantially increased”.
Regarding catalase, in data set [1], the “effect of addition on enzymatic activity” value is given as “substantially increased”.
Consider “^125 I-D-Tyr-Val-Gly [125I-D-Tyr-Val-Gly]”, for which, in data set [2] (each time point (10, 20, 30 minutes), 37° C.), the “fractional conversion relative to dansyl-Tyr-Val-Gly” value is on record as “approximately 1.55 times”.
`CC(C)[C@H](NC(=O)[C@H](N)Cc1ccc(O)cc1)C(=O)NCC(=O)O` [D-Tyr-Val-Gly] (HELM PEPTIDE1{[dY].V.G}$$$$V2.0): the “maximal velocity relative to dansyl-Tyr-Val-Gly” value in data set [2] (comparison of Vmax) was “approximately 1.48 times”.

B1: alpha-amidating enzyme (Rattus norvegicus) (protein)
chain: T1 sequence (P14925 36-976)
For B1, in data set [3], the Michaelis constant (Km) came to 37 µM and the Vmax was 31 pmol product/min/μl.

B2: Peak IV enzyme (CA-77): higher molecular weight form from CA-77 medium, corresponds to peak III derived from MTC tumors (protein, UniProt P14925 36-976, looked up)
Peptidylglycine …: T1 sequence (P14925 36-976)
modifications: higher molecular weight form
Take B2: the specific activity result in data set [4] (CA-77 media, purified enzyme, pH 7.0) is “approximately 1500 mU/mg protein”. In addition, the pH optimum in data set [5] was 5.0-5.5.

B3: peak eluting at 190 mM NaCl: enzyme activity peak from Mono Q HR 5/5 at pH 8.0 eluting at 190 mM NaCl (protein, UniProt P14925 36-976, looked up)
Peptidylglycine …: T1 sequence (P14925 36-976)
modifications: Mono Q fraction
As to B3, the specific alpha-amidating activity entry in data set [4] (after Mono Q chromatography at pH 8.0, rat MTC tumor) is reported as “at least 80 mU/mg protein”.

One may read the Km as the concentration of substrate that gives half-maximal velocity.
